This is an account of results in PMC11389940, “The chemokine receptor CCR8 is not a high-affinity receptor for the human chemokine CCL18” (PLOS ONE, 2024).

The target of test [1] is T1, human CCR3 expressed on 4DE4 cells (human) (UniProt P51677).
T1 sequence: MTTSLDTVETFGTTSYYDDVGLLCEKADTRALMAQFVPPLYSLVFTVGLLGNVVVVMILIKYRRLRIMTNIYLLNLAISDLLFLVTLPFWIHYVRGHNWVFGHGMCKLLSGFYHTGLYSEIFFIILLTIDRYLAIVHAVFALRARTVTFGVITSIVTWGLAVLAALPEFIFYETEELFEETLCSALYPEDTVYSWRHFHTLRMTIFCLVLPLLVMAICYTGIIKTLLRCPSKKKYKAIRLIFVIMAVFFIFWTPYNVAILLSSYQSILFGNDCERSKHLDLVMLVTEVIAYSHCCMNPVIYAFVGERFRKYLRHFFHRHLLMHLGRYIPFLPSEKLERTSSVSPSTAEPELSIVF

In test [2] the target is T2, mCCR8 tagged at the N-terminus with a C-myc epitope tag and at the C-terminus with Renilla luciferase variant 8 (mouse) (UniProt P56484).
T2 sequence: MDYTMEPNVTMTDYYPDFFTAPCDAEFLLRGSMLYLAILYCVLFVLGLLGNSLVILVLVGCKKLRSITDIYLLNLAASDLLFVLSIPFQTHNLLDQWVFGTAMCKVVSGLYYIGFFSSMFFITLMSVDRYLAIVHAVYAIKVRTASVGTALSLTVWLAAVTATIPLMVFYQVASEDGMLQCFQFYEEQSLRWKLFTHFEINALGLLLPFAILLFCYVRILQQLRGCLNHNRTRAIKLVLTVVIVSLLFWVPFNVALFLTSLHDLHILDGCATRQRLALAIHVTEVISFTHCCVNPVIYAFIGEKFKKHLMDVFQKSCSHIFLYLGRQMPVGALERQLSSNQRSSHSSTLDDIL

The target in test [3] is T3, mouse CCR8 expressed on FlpInCHO cells (mouse) (UniProt P56484).
T3 sequence: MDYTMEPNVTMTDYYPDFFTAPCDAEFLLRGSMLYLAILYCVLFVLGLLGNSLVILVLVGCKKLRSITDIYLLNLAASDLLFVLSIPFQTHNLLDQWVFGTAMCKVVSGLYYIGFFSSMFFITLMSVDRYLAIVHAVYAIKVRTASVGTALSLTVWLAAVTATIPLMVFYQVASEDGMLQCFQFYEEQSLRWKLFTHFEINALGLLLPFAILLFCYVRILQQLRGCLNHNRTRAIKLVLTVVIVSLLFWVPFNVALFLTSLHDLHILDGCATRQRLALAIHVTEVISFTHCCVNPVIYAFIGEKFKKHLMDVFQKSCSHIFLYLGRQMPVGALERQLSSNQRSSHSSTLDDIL

The target in test [4] is CCR8 tagged at the N-terminus with a C-myc epitope tag and at the C-terminus with Renilla luciferase variant 8 (human, UniProt P51685 1-355). Kind of test: cell-based or functional assay.
Sequence of CCR8 tagged at the N-terminus with a C-myc epitope tag and at the C-terminus with Renilla luciferase variant 8 (P51685 whole entry, change not shown): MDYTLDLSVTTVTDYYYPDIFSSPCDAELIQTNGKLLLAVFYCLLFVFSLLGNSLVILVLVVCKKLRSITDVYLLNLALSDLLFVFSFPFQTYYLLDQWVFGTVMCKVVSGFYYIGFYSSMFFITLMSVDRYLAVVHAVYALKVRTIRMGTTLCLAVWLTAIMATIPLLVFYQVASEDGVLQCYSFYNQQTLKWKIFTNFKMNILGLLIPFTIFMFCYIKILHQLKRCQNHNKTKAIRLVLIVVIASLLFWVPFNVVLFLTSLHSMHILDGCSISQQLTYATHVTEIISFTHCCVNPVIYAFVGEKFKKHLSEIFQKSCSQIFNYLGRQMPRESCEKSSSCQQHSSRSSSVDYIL
The target of test [5] is human CCR8 expressed on transfected cells (human, UniProt P51685 1-355). Kind of test: cell-based or functional assay.
Sequence of human CCR8 expressed on transfected cells (P51685 whole entry): as the sequence (P51685 whole entry, change not shown) above

A value given as a limit tells only on which side of the number the result lay.

B1: CCL18(1–69) (ligand)
chain: AQVGTNKELCCLVYTSWQIPQKFIVDYSETSPQCPKPGVILLTKRGRQICADPNKKWVQKYISDLKLNA
B1 displayed an inhibition by CCL18 of chemotaxis of 4DE4-CCR3 cells to 1 nM CCL11 (blocks CCL11 with CCR3); 50% inhibitory concentration in test [1] of less than 50 nM.

B2: murine CCL1 (ligand)
chain: KSMLTVSNSCCLNTLKKELPLKFIQCYRKMGSSCPDPPAVVFRLNKGRESCASTNKTWVQNHLKKVNPC
B2 registered a β-arrestin2 recruitment to mCCR8 (BRET) in FlpIn CHO cells; EC50 of mCCL1 in test [2] of 24 nM. In test [3], this molecule returned a G protein activation in FlpIn CHO cells stably expressing mCCR8; EC50 of 11 nM and a cAMP inhibition in FlpIn CHO cells stably expressing mCCR8; EC50 of 30 nM.

B3: CCL1 (ligand, human, UniProt P22362 24-96, looked up)
chain: KSMQVPFSRCCFSFAEQEIPLRAILCYRNTSSICSNEGLIFKLKRGKEACALDTVGWVQRHRKMLRHCPSKRK
For B3, the “β-arrestin2 recruitment to CCR8 (BRET) in FlpIn CHO cells; EC50 of CCL1” value in test [4] was 21 nM. In addition, in test [5], the “G protein activation (Gαi2; BRET of Gβγ with a GRK fragment) in FlpIn CHO cells stably expressing CCR8; EC50” value is 46 nM and the “inhibition of forskolin-stimulated cAMP synthesis (CAMYEL biosensor) in FlpIn CHO cells stably expressing CCR8; EC50” value came out at 26 nM.
